Assay results from the RNAGym collection of RNA variant scans (doi:10.7554/elife.90254).

B1: OR4K15 (parent)
chain: GUUAACGGUCAUAGGCCAUGGAAACUAGGAGCACCAUUUCGCUGCCAGUGAAGAAAUGAACAAAGAAAAUCUGGGCCAGGCAGGCAUCAAAAGAAAUAGUCUUGCGCUCAACCAGAAAGUCUGUAAUCAUUUUAAGGGUA

Variants of: B1
Assay: self-cleavage, relative activity (ratio to wild type); higher = more cleavage; in vitro, sequencing; the parent is a self-cleaving ribozyme

Variant	self-cleavage
A95U A116G	1
A11C U102C	1.91
A23U A51U	1.33
A89C U120C	0.75
C32A U108C	0.03
A51G C121U	2.74
A23C U38C	1.73
U122C A129G	0.46
A47G A92U	1.18
C77U A90G	2.13
A92U A126U	1.02
G138U	1.69
A91G U97A	1.05
G1U U87C	0.27
U57A G138A	1.33
U19C A118G	1.27
A69U U127C	1.46
U102C A126G	1.89
A56G C113U	0.08
U49C G80U	0.11
C105U A118G	0.04
A4G A125G	0.55
U87C A92G	0.43
A98U G115A	0.1

Variant	self-cleavage
U108C U139C	0.01
G104U A114U	0.02
G115U U130C	0.07
U43G A126G	0.92
A69G C105G	0.02
A60C A66G	0.72
U26C U39C	1.63
A30U C101A	0.25
U38C A116U	0.09
A59G G79A	0.28
C32U U139C	1.64
U49A A96G	1.12
C10U G104A	0.06
A27U G44U	2.13
A55G C88U	1.02
A64G A94G	1.74
A64G A94U	1.61
A59G U102C	1.5
U49C U131C	1.11
A117C	0.55
A64C G137A	1.49
A114G	0.45
U3C A82U	0.21
A95U A98G	1.46

Variant	self-cleavage
G48C A51G	0.94
A62G A126U	1.6
U9C A52C	1.39
A78G A90U	0.31
U12C A110U	1.26
A64C A116G	0.83
A68U U103A	0.3
A22U C121U	0
U72A U124C	0.04
A94G A134U	1.58
U39C A60G	1.42
A24G A68G	1.01
A63G A118C	1.42
G21A U120A	1.28
A13U A60U	2.26
A5G A134U	1.24
A30G A129G	1.02
U131G	0.76
G15C A111G	0.01
G21U U37C	1.85
C32U A36U	1.76
U57C A95G	1.76
A11U U102A	0.7
U9C C105U	0.14

Variant	self-cleavage
G58U U87C	0.38
A118C U122A	1.12
U9A A62G	0.45
A125U A135G	0.55
U70G A82U	0.2
G73U	0.05
A67G A129G	0.85
G75A U108A	0.01
G74U U132C	0.18
U103A A134U	0.87
A52G A68U	1.66
A33G A92G	1.01
A33G U102C	1.44
U108C A116U	0
A24G U43C	1.37
A18G U43C	1.52
C10A G44A	1.2
A64G G74A	0.36
G31A A60C	1.95
C61G A62U	1.87
G79A U120A	0.13
A11G A13G	1.26
U102C A114U	0.11
C113A A116G	0.01

Variant	self-cleavage
U38A G48A	1.31
C88U U139A	1.67
U12A A24G	0.69
U39C U130C	1.12
U72C A116G	0.07
U2C G28U	2.17
U2C A140G	0.72
A56G U70C	0.95
A66G G104U	0.02
U97C A98C	0.75
A54G A114U	0.07
A96G C109A	0.37
A18U U43G	1.5
U3A A92G	1.3
U100C A126G	1.86
U49C G83U	0.71
A4G C35A	1.14
A5U A36U	2.27
U37C A140U	1.87
A78G G84A	0.24
C77A U131C	0.5
A68G A69G	0.87
A68G A69U	1.38
A86G C105A	0.02

Variant	self-cleavage
G21U A118G	1.98
A51G A114U	0.08
A55G A135U	0.94
A64G A78G	0.28
U108C A114G	0.01
A69G U131G	0.46
A24C U108A	0.01
A51U G74A	0.22
U12C A126U	0.52
A24C A62G	1.2
G74A A78G	0.21
C25G	1.1
U97C U102C	2.38
U43A A118G	1.25
A118G	0.89
G104A U122C	0.02
A89G A134G	1.64
A11U A23U	0.71
U12C A56G	0.93
U2A U108C	0.04
A30G A47G	0.71
A11G U19C	0.56
U43C A96G	1.09
A96G C113G	0.02

Variant	self-cleavage
A33G U37C	0.74
A89G U139G	1.4
U100C A110C	1.12
U2C U38C	1.09
U9C U108A	0.04
A111G A117G	0.01
A22G U124C	0.38
U57A A114G	0.38
A11G C71G	0.34
A89G A118G	1.18
C10U U37C	1.65
A78U A129C	0.14
A5G A78C	0.62
U9G A92G	1.15
G79U G104U	0.01
C17U U108C	0
A68G G136A	1.44
A96G U131C	1.73
C40U U100C	1.83
A63G G106U	0.02
A54G C85U	1.39
U72C U127C	0.07
G7C A11G	1.03
